Reference: patent US20140179594A1, “STREPTOCOCCUS BACTERIOPHAGE LYSINS FOR TREATMENT OF GRAM POSITIVE BACTERIA IN COMPANION ANIMALS AND LIVESTOCK” (priority 2011, published 2014)

Assays:
Assay type in all cases: cell-based
S. suis strain 7711 = test: ΔPlySs1 growth inhibition in BHI broth; conditions: strain 7711 in BHI broth, overnight
Protocol: The optical density of each sample was measured continuously overnight in 96-well plate format. Overall, bacterial growth was delayed in a dose-dependent manner. However, for enzyme-concentrations that were sufficient to induce lysis in buffered solutions (130 and 50 μg/ml), the effect was quite minimal here. […] For all of the treated samples, one will note that the final optical densities are actually higher than that of the untreated sample. This is an artifact of the accumulation of aggregated bacterial debris that occurred in the presence of lytic enzyme.
(§1) Given the above experiments, the following optimal buffering conditions were employed for all further in vitro experiments with ΔPlySs1: 20 mM phosphate buffer, pH=7.8, 2 mM EDTA. A range of lysin concentrations, from 6.5-130 μg/ml, were introduced to live S. suis cells in this buffer. Three strains were considered particularly relevant: 7711, the serotype 7 strain that encodes PlySs1; 5735, the serotype 2 reference strain; and 7997, a highly virulent serotype 9 strain. In terms of bacterial viability, only the highest PlySs1-concentration (130 μg/ml) led to a >90% decrease in CFUs for 7711, S735, and 7997 after 1 hr treatment (TABLE 2). The lysin was also tested against actively-dividing cells in broth culture (strain 7711) (FIG. 20).

S. suis 10 (ST2) = test: ΔPlySs1 OD600 lysis, 1 hr
Protocol: as §1
(§2) ΔPlySs1 was further tested against a panel of 19 other S. suis strains of diverse serotypes, as well as other species of Gram-positive bacteria. The same lysin concentrations were used as above. For each dosage, the observed lysis values after 1 hr are listed in TABLE 3 and TABLE 4, and the information is summarized graphically in FIG. 21.

S. suis 6112 (ST1) = test: ΔPlySs1 OD600 lysis, 1 hr
Protocol: as §1, §2

S. suis 7197 (ST7) = test: ΔPlySs1 OD600 lysis, 1 hr
Protocol: as §1, §2

S. suis 8076 (ST9) = test: ΔPlySs1 OD600 lysis, 1 hr
Protocol: as §1, §2

S. suis ST10 = test: ΔPlySs1 OD600 lysis, 1 hr
Protocol: as §1, §2

S. suis ST11 = test: ΔPlySs1 OD600 lysis, 1 hr
Protocol: as §1, §2

S. suis ST13 = test: ΔPlySs1 OD600 lysis, 1 hr
Protocol: as §1, §2

S. suis ST14 = test: ΔPlySs1 OD600 lysis, 1 hr
Protocol: as §1, §2

S. suis ST1 = test: ΔPlySs1 OD600 lysis, 1 hr
Protocol: as §1, §2

S. suis ST2 = test: ΔPlySs1 OD600 lysis, 1 hr
Protocol: as §1, §2

S. suis ST3 = test: ΔPlySs1 OD600 lysis, 1 hr
Protocol: as §1, §2

S. suis ST4 = test: ΔPlySs1 OD600 lysis, 1 hr
Protocol: as §1, §2

S. suis ST5 = test: ΔPlySs1 OD600 lysis, 1 hr
Protocol: as §1, §2

S. suis ST6 = test: ΔPlySs1 OD600 lysis, 1 hr
Protocol: as §1, §2

S. suis ST7 = test: ΔPlySs1 OD600 lysis, 1 hr
Protocol: as §1, §2

S. suis ST8 = test: ΔPlySs1 OD600 lysis, 1 hr
Protocol: as §1, §2

S. suis ST9 = test: ΔPlySs1 OD600 lysis, 1 hr
Protocol: as §1, §2

S. sobrinus 6715 = test: ΔPlySs1 OD600 lysis, 1 hr
E. faecalis V583 = test: ΔPlySs1 OD600 lysis, 1 hr

B1: ΔPlySs1: truncated PlySs1 lysin with N-terminal enzymatic and central binding domains, N-terminal 254 amino acids, SEQ ID NO:2 (protein, listed as Streptococcus suis)
chain: MTINLETSIRWMSDRVGKVSYSMDYRNGPNSYDCSSAVYYALMAGGAISAGWAVNTEYMHDWLIRNGYVLVAENKPFNAQRHDVCILGKRGYSSGAGGHVVIFVDNVNVIHCNYARNGISIDNYNQVHRGMYYYLYRPANQPSISNKSLDQLVKETLAGVHGNGDTRKASLGSQYEAVMAVINGKASASEKSDEELAREVLAGKHGAGEDRKRSLGPRYEPVQAKVNELLKAKEKPSETAKNEPQTVQFKEDGDL
growth inhibition of actively-dividing cells (S. suis strain 7711): could not inhibit S. suis growth outright | 1-hour treated/untreated OD600-ratio (S. suis 10 (ST2); 6.5 μg/ml): 0.29 | 1-hour treated/untreated OD600-ratio (S. suis 10 (ST2); 13 μg/ml): 0.18 | 1-hour treated/untreated OD600-ratio (S. suis 10 (ST2); 30 μg/ml): 0.10 | 1-hour treated/untreated OD600-ratio (S. suis 10 (ST2); 65 μg/ml): 0.05 | 1-hour treated/untreated OD600-ratio (S. suis 10 (ST2); 130 μg/ml): 0.02 | 1-hour treated/untreated OD600-ratio (S. suis 6112 (ST1); 6.5 μg/ml): 0.14 | 1-hour treated/untreated OD600-ratio (S. suis 6112 (ST1); 13 μg/ml): 0.11 | 1-hour treated/untreated OD600-ratio (S. suis 6112 (ST1); 30 μg/ml): 0.06 | 1-hour treated/untreated OD600-ratio (S. suis 6112 (ST1); 65 μg/ml): 0.02 | 1-hour treated/untreated OD600-ratio (S. suis 6112 (ST1); 130 μg/ml): 0.01 | 1-hour treated/untreated OD600-ratio (S. suis 7197 (ST7); 6.5 μg/ml): 0.64 | 1-hour treated/untreated OD600-ratio (S. suis 7197 (ST7); 13 μg/ml): 0.49 | 1-hour treated/untreated OD600-ratio (S. suis 7197 (ST7); 30 μg/ml): 0.39 | 1-hour treated/untreated OD600-ratio (S. suis 7197 (ST7); 65 μg/ml): 0.16 | 1-hour treated/untreated OD600-ratio (S. suis 7197 (ST7); 130 μg/ml): 0.07 | 1-hour treated/untreated OD600-ratio (S. suis 8076 (ST9); 6.5 μg/ml): 0.52 | 1-hour treated/untreated OD600-ratio (S. suis 8076 (ST9); 13 μg/ml): 0.40 | 1-hour treated/untreated OD600-ratio (S. suis 8076 (ST9); 30 μg/ml): 0.21 | 1-hour treated/untreated OD600-ratio (S. suis 8076 (ST9); 65 μg/ml): 0.14 | 1-hour treated/untreated OD600-ratio (S. suis 8076 (ST9); 130 μg/ml): 0.04 | 1-hour treated/untreated OD600-ratio (S. suis ST10; 6.5 μg/ml): 0.85 | 1-hour treated/untreated OD600-ratio (S. suis ST10; 13 μg/ml): 0.72 | 1-hour treated/untreated OD600-ratio (S. suis ST10; 30 μg/ml): 0.55 | 1-hour treated/untreated OD600-ratio (S. suis ST10; 65 μg/ml): 0.44 | 1-hour treated/untreated OD600-ratio (S. suis ST10; 130 μg/ml): 0.28 | 1-hour treated/untreated OD600-ratio (S. suis ST11; 6.5 μg/ml): 0.64 | 1-hour treated/untreated OD600-ratio (S. suis ST11; 13 μg/ml): 0.47 | 1-hour treated/untreated OD600-ratio (S. suis ST11; 30 μg/ml): 0.32 | 1-hour treated/untreated OD600-ratio (S. suis ST11; 65 μg/ml): 0.19 | 1-hour treated/untreated OD600-ratio (S. suis ST11; 130 μg/ml): 0.07 | 1-hour treated/untreated OD600-ratio (S. suis ST13; 6.5 μg/ml): 0.32 | 1-hour treated/untreated OD600-ratio (S. suis ST13; 13 μg/ml): 0.17 | 1-hour treated/untreated OD600-ratio (S. suis ST13; 30 μg/ml): 0.04 | 1-hour treated/untreated OD600-ratio (S. suis ST13; 65 μg/ml): 0.02 | 1-hour treated/untreated OD600-ratio (S. suis ST13; 130 μg/ml): 0.02 | 1-hour treated/untreated OD600-ratio (S. suis ST14; 6.5 μg/ml): 0.79 | 1-hour treated/untreated OD600-ratio (S. suis ST14; 13 μg/ml): 0.57 | 1-hour treated/untreated OD600-ratio (S. suis ST14; 30 μg/ml): 0.33 | 1-hour treated/untreated OD600-ratio (S. suis ST14; 65 μg/ml): 0.15 | 1-hour treated/untreated OD600-ratio (S. suis ST14; 130 μg/ml): 0.06 | 1-hour treated/untreated OD600-ratio (S. suis ST1; 6.5 μg/ml): 0.80 | 1-hour treated/untreated OD600-ratio (S. suis ST1; 13 μg/ml): 0.34 | 1-hour treated/untreated OD600-ratio (S. suis ST1; 30 μg/ml): 0.36 | 1-hour treated/untreated OD600-ratio (S. suis ST1; 65 μg/ml): 0.19 | 1-hour treated/untreated OD600-ratio (S. suis ST1; 130 μg/ml): 0.06 | 1-hour treated/untreated OD600-ratio (S. suis ST2; 6.5 μg/ml): 0.79 | 1-hour treated/untreated OD600-ratio (S. suis ST2; 13 μg/ml): 0.70 | 1-hour treated/untreated OD600-ratio (S. suis ST2; 30 μg/ml): 0.49 | 1-hour treated/untreated OD600-ratio (S. suis ST2; 65 μg/ml): 0.34 | 1-hour treated/untreated OD600-ratio (S. suis ST2; 130 μg/ml): 0.17 | 1-hour treated/untreated OD600-ratio (S. suis ST3; 6.5 μg/ml): 0.81 | 1-hour treated/untreated OD600-ratio (S. suis ST3; 13 μg/ml): 0.71 | 1-hour treated/untreated OD600-ratio (S. suis ST3; 30 μg/ml): 0.48 | 1-hour treated/untreated OD600-ratio (S. suis ST3; 65 μg/ml): 0.32 | 1-hour treated/untreated OD600-ratio (S. suis ST3; 130 μg/ml): 0.16 | 1-hour treated/untreated OD600-ratio (S. suis ST4; 6.5 μg/ml): 0.63 | 1-hour treated/untreated OD600-ratio (S. suis ST4; 13 μg/ml): 0.47 | 1-hour treated/untreated OD600-ratio (S. suis ST4; 30 μg/ml): 0.32 | 1-hour treated/untreated OD600-ratio (S. suis ST4; 65 μg/ml): 0.22 | 1-hour treated/untreated OD600-ratio (S. suis ST4; 130 μg/ml): 0.12 | 1-hour treated/untreated OD600-ratio (S. suis ST5; 6.5 μg/ml): 0.78 | 1-hour treated/untreated OD600-ratio (S. suis ST5; 13 μg/ml): 0.59 | 1-hour treated/untreated OD600-ratio (S. suis ST5; 30 μg/ml): 0.39 | 1-hour treated/untreated OD600-ratio (S. suis ST5; 65 μg/ml): 0.22 | 1-hour treated/untreated OD600-ratio (S. suis ST5; 130 μg/ml): 0.10 | 1-hour treated/untreated OD600-ratio (S. suis ST6; 6.5 μg/ml): 0.76 | 1-hour treated/untreated OD600-ratio (S. suis ST6; 13 μg/ml): 0.56 | 1-hour treated/untreated OD600-ratio (S. suis ST6; 30 μg/ml): 0.40 | 1-hour treated/untreated OD600-ratio (S. suis ST6; 65 μg/ml): 0.21 | 1-hour treated/untreated OD600-ratio (S. suis ST6; 130 μg/ml): 0.06 | 1-hour treated/untreated OD600-ratio (S. suis ST7; 6.5 μg/ml): 0.65 | 1-hour treated/untreated OD600-ratio (S. suis ST7; 13 μg/ml): 0.47 | 1-hour treated/untreated OD600-ratio (S. suis ST7; 30 μg/ml): 0.34 | 1-hour treated/untreated OD600-ratio (S. suis ST7; 65 μg/ml): 0.22 | 1-hour treated/untreated OD600-ratio (S. suis ST7; 130 μg/ml): 0.11 | 1-hour treated/untreated OD600-ratio (S. suis ST8; 6.5 μg/ml): 0.25 | 1-hour treated/untreated OD600-ratio (S. suis ST8; 13 μg/ml): 0.12 | 1-hour treated/untreated OD600-ratio (S. suis ST8; 30 μg/ml): 0.06 | 1-hour treated/untreated OD600-ratio (S. suis ST8; 65 μg/ml): 0.03 | 1-hour treated/untreated OD600-ratio (S. suis ST8; 130 μg/ml): 0.03 | 1-hour treated/untreated OD600-ratio (S. suis ST9; 6.5 μg/ml): 0.50 | 1-hour treated/untreated OD600-ratio (S. suis ST9; 13 μg/ml): 0.30 | 1-hour treated/untreated OD600-ratio (S. suis ST9; 30 μg/ml): 0.23 | 1-hour treated/untreated OD600-ratio (S. suis ST9; 65 μg/ml): 0.13 | 1-hour treated/untreated OD600-ratio (S. suis ST9; 130 μg/ml): 0.05 | 1-hour treated/untreated OD600-ratio (S. sobrinus 6715; 6.5 μg/ml): 0.64 | 1-hour treated/untreated OD600-ratio (S. sobrinus 6715; 13 μg/ml): 0.48 | 1-hour treated/untreated OD600-ratio (S. sobrinus 6715; 30 μg/ml): 0.39 | 1-hour treated/untreated OD600-ratio (S. sobrinus 6715; 65 μg/ml): 0.32 | 1-hour treated/untreated OD600-ratio (S. sobrinus 6715; 130 μg/ml): 0.23 | 1-hour treated/untreated OD600-ratio (E. faecalis V583; 6.5 μg/ml): 0.98 | 1-hour treated/untreated OD600-ratio (E. faecalis V583; 13 μg/ml): 0.93 | 1-hour treated/untreated OD600-ratio (E. faecalis V583; 30 μg/ml): 0.84 | 1-hour treated/untreated OD600-ratio (E. faecalis V583; 65 μg/ml): 0.71 | 1-hour treated/untreated OD600-ratio (E. faecalis V583; 130 μg/ml): 0.52
